Measured values taken from patent US20240409635A1 (VIBRANT PHARMA, published 2024).

Columns and labels:
[1] = molecular target: epidermal growth factor receptor (EGFR) on human tumor cells (human, UniProt P00533 25-1210); experiment: cell-based or functional assay
[2] = molecular target: T1, recombinant human CD3ε/δ protein (ACRO systems, CDD-H52W1) (human, UniProt P07766 23-126; P04234 22-105); experiment: BLI, antibody captured on AHC sensor
T1 construct: Bought reagent
Description: (§1) Antibodies were first captured onto an anti-human IgG Fc coated AHC biosensor (Anti-hIgG Fc, Sartorius, 18-5060). Antibodies were diluted to 5 μg/mL and 1.5 nm protein was coupled to the AHC sensor surface in 0.02% PBST.
(§2) After the sensor captures the antibodies, it is used to bind and dissociate with different concentrations of analytes to obtain the KD value of the interaction. The experimental parameters are as follows: Baseline1: 60 s, Loading: 240 s, Baseline2: 180 s, Association: 240 s, Dissociation: 600 s, High sensitivity kinetics: 2 Hz. Kinetic constants were derived based on the rate equation for 1:1 Langmuir binding to obtain equilibrium dissociation constants (KD). The Data Analysis HT 12 software (Sartorius, 50-5029) was used to simultaneously fit binding and dissociation curves to calculate Kₒₙ, and Koff. The affinity KD was calculated based on the below formula: KD=Koff/Kₒₙ.

[3] = molecular target: T2, recombinant human EGFR protein (ACRO systems, EGR-H5222) (human, UniProt P00533 25-645); experiment: BLI, antibody captured on AHC sensor
T2 construct: Bought reagent
Description: as §1, §2

[4] = molecular target: T3, recombinant human c-Met protein (human, UniProt P08581 25-932); experiment: BLI, antibody on AHC sensor
T3 construct: Bought
T3 sequence (P08581 25-932 limits assumed): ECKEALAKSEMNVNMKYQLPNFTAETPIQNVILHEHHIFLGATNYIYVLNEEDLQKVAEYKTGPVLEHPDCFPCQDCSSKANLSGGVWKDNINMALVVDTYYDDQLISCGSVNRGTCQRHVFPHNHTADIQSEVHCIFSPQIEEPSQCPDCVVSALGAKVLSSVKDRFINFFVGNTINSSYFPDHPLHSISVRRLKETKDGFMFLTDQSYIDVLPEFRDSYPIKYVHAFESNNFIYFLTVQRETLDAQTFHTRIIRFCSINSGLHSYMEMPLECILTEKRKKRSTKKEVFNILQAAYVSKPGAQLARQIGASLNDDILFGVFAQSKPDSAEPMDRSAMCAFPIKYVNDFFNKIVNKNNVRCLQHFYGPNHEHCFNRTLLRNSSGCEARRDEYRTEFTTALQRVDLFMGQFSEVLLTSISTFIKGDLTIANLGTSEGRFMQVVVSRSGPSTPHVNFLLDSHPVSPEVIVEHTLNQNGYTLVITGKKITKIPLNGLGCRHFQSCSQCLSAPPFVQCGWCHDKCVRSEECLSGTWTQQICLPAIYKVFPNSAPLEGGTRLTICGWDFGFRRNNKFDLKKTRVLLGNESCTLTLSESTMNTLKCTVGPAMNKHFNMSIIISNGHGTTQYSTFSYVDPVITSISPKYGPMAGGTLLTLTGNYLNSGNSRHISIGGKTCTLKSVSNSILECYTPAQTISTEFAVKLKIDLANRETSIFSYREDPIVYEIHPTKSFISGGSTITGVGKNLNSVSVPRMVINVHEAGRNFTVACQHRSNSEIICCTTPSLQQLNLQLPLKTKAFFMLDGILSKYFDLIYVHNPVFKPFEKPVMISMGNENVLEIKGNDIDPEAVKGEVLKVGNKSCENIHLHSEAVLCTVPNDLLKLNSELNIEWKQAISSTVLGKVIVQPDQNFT
Description: as §1
as §2, with “Kₒₙ” for “Kₒₙ,”

[5] = molecular target: T4, keyhole limpet haemocyanin; experiment: ELISA, KLH coated, 100 nM antibody
T4 construct: Bought reagent, coated at 5 ug/mL; also called KLH
Description: (§3) The experimental steps are as follows [0420] […] (4) 50 μl anti-human IgG-HRP conjugate (Sigma, AP113P, 1:8000 dilution) was added to each well; the plate was incubated for 1 h at room temperature and washed 6 times with 0.05% PBST; [0424] (5) 50 μl of TMB chromogenic solution (Biopanda, TMB-S-001) was added to each well and incubated at room temperature for 10-15 minutes for color development; [0425] (6) 50 μl of 1M HCl was added to each well to stop the color development, and the absorbance at 450 nm was measured using a microplate reader (Biotek, SYNERGY LX); Data analysis: If the ratio between the absorbance of the antibody and the absorbance of the blank control PBS is ≥3, there is too much non-specific binding.

Insulin = molecular target: T5, Insulin; experiment: ELISA, insulin coated, 100 nM antibody
T5 construct: Bought reagent, coated at 5 ug/mL
Description: as §3

[6] = molecular target: T6, recombinant human protein CD3ε/δ (ACRO systems, CDD-H52W1) (human, UniProt P07766 23-126; P04234 22-105); experiment: BLI, antibody on AHC sensor, antigen as analyte
T6 construct: Bought heterodimer
T6 sequence (P07766 23-126, stated change not applied, chain 1 of 2): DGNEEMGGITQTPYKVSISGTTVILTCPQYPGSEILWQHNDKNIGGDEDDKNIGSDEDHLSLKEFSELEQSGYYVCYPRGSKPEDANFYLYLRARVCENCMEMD
T6 sequence (P04234 22-105, stated change not applied, chain 2 of 2): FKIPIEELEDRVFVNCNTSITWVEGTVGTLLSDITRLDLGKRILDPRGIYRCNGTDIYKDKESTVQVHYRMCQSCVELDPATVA
Description: as §1
as §2, with “binds” for “is used to bind”, “dissociates” for “dissociate”, “Kₒₙ” for “Kₒₙ,”

[7] = molecular target: T7, recombinant human EGFR protein (ACRO systems, EGR-H5222) (human, UniProt P00533 25-645); experiment: BLI, antibody on AHC sensor, antigen as analyte
T7 construct: Bought
Description: as §1
as §2, with “binds” for “is used to bind”, “dissociates” for “dissociate”, “Kₒₙ” for “Kₒₙ,”

[8] = molecular target: T8, recombinant human tumor antigen CEACAM-6 (ACRO systems, CE6-H5223) (human, UniProt P40199 35-320); experiment: BLI, antibody on AHC sensor, antigen as analyte
T8 construct: Bought
T8 sequence (looked up): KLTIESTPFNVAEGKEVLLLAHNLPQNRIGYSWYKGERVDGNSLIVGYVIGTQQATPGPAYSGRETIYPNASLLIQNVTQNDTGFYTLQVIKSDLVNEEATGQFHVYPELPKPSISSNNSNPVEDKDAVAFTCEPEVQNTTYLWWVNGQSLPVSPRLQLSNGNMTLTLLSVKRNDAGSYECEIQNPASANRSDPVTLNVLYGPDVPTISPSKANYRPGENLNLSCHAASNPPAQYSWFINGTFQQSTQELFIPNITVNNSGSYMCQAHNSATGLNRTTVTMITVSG
Description: as §1
as §2, with “binds” for “is used to bind”, “dissociates” for “dissociate”, “Kₒₙ” for “Kₒₙ,”

T1 sequence (P07766 23-126, stated change not applied, chain 1 of 2): as the sequence (P07766 23-126, stated change not applied, chain 1 of 2) above
T1 sequence (P04234 22-105, stated change not applied, chain 2 of 2): as the sequence (P04234 22-105, stated change not applied, chain 2 of 2) above

B1: EGFR-BsAb bispecific control antibody (TA1-Fab CD3 x EGFR VHH) (bispecific antibody, human IgG4 S228P, kappa, F234A L235A)
heavy: EVKLLESGGGLVQPKGSLKLSCAASGFTFNTYAMNWVRQAPGKGLEWVARIRSKYNNYATYYADSVKDRFTISRDDSQSILYLQMNNLKTEDTAMYYCVRHGNFGNSYVSWFAYWGQGTLVTVSSASTKGPSVFPLAPCSRSTSESTAALGCLVKDYFPEPVTVSWNSGALTSGVHTFPAVLQSSGLYSLSSVVTVPSSSLGTKTYTCNVDHKPSNTKVDKRVESKYGPPCPPCPAPEAAGGPSVFLFPPKPKDTLMISRTPEVTCVVVDVSQEDPEVQFNWYVDGVEVHNAKTKPREEQFNSTYRVVSVLTVLHQDWLNGKEYKCKVSNKGLPSSIEKTISKAKGQPREPQVYTLPPCQEEMTKNQVSLWCLVKGFYPSDIAVEWESNGQPENNYKTTPPVLDSDGSFFLYSRLTVDKSRWQEGNVFSCSVMHEALHNHYTQKSLSLSL
chain: QVQLQESGGGSVQAGGSLKLSCAASGRGFSRYAMGWFRQAPGQDREFVATISWTNSTDYADSVKGRFAISRDNAKNTAYLQMNSLKPEDTAVYYCAADKWASSTRSIDYDYWGQGIQVTVSSESKYGPPCPPCPAPEAAGGPSVFLFPPKPKDTLMISRTPEVTCVVVDVSQEDPEVQFNWYVDGVEVHNAKTKPREEQFNSTYRVVSVLTVLHQDWLNGKEYKCKVSNKGLPSSIEKTISKAKGQPREPQVCTLPPSQEEMTKNQVSLSCAVKGFYPSDIAVEWESNGQPENNYKTTPPVLDSDGSFFLVSRLTVDKSRWQEGNVFSCSVMHEALHNRFTQKSLSLSL
light: QAVVTQESALTTSPGETVTLTCRSSTGAVTTSNYANWVQEKPDHLFTGLIGGTNKRAPGVPARFSGSLIGDKAALTITGAQTEDEAIYFCALWYSNLWVFGGGTKVEIKRTVAAPSVFIFPPSDEQLKSGTASVVCLLNNFYPREAKVQWKVDNALQSGNSQESVTEQDSKDSTYSLSSTLTLSKADYEKHKVYACEVTHQGLSSPVTKSFNRGEC
notes: also called anti-EGFR-BsAb
killing EC50, NCI-H157 cells (EGFR-positive) [1]: 0.02 nM | killing EC50, NCI-H1299 cells (EGFR-positive) [1]: 0.0318 nM | killing EC50, NCI-H1395 cells (EGFR-positive) [1]: 0.0108 nM | Kd [2]: 9.03 nM | koff [2]: 0.000748 s⁻¹ | kon [2]: 82900 M⁻¹ s⁻¹ | Kd [3]: 9.85 nM | koff [3]: 0.00305 s⁻¹ | kon [3]: 309000 M⁻¹ s⁻¹

B2: c-Met-BsAb bispecific control antibody (TA1F anti-CD3 Fab x c-Met VHH) (bispecific antibody, IgG4, not shown: a dimerising Fc or GST)
heavy: EVKLLESGGGLVQPKGSLKLSCAASGFTFNTYAMNWVRQAPGKGLEWVARIRSKYNNYATYYADSVKDRFTISRDDSQSILYLQMNNLKTEDTAMYYCVRHGNFGNSYVSWFAYWGQGTLVTVSSASTKGPSVFPLAPCSRSTSESTAALGCLVKDYFPEPVTVSWNSGALTSGVHTFPAVLQSSGLYSLSSVVTVPSSSLGTKTYTCNVDHKPSNTKVDKRV
chain: QVKLEESGGDLVQPGGSLRLSCVGSGSIFSYTAMGWYRQAPGKQRELVATIHSGGNINYADSVKGRFTISRDNTENTVYLQMNSLKPEDTAVYYCWSLLVGPETRYKDFNFWGRGTQVTVSS
light: B1 light
notes: the text gives VH-CH1-Hinge-Fc (IgG4) and VL-CL (kappa)
Kd [4]: 0.523 nM | koff [4]: 0.000367 s⁻¹ | kon [4]: 702000 M⁻¹ s⁻¹

B3: CEA-CAM6-BsAb bispecific control antibody (TA1-Fab anti-CD3 x CEA-CAM6 VHH) (bispecific antibody, human IgG4 S228P, kappa, F234A L235A)
heavy: B1 heavy
chain: QVKLEESGGGLVQAGGSLRLSCRTSGRTNSVYTMGWFRQAPGKEREFVAQIMWGAGTNTHYADSVKGRFTISRDSAESTVYLQMNSLKPEDTAVYYCAANRGIPIAGRQYDYWGQGTQVTVSSESKYGPPCPPCPAPEAAGGPSVFLFPPKPKDTLMISRTPEVTCVVVDVSQEDPEVQFNWYVDGVEVHNAKTKPREEQFNSTYRVVSVLTVLHQDWLNGKEYKCKVSNKGLPSSIEKTISKAKGQPREPQVCTLPPSQEEMTKNQVSLSCAVKGFYPSDIAVEWESNGQPENNYKTTPPVLDSDGSFFLVSRLTVDKSRWQEGNVFSCSVMHEALHNRFTQKSLSLSL
light: B1 light
notes: IgG4
absorbance ratio to PBS blank [5]: 0.45 | absorbance ratio to PBS blank (Insulin): 0.87

B4: CEACAM6-BsAb (CD3 TA1-Fab x CEA-CAM6 VHH bispecific control antibody) (bispecific antibody, human IgG4 S228P, kappa, F234A L235A)
heavy: B1 heavy
chain: B3 chain
light: B1 light
notes: also called anti-CEA-CAM6-BsAb
Kd [6]: 5.73 nM | koff [6]: 0.00421 s⁻¹ | kon [6]: 734000 M⁻¹ s⁻¹ | koff [7]: 0.00143 s⁻¹ | kon [7]: 570000 M⁻¹ s⁻¹ | Kd [8]: 1.64 nM | koff [8]: 0.000336 s⁻¹ | kon [8]: 206000 M⁻¹ s⁻¹

B5: HER2-BsAb bispecific control antibody (TA1-Fab anti-CD3 x HER2 VHH) (bispecific antibody, human IgG4 S228P, kappa, F234A L235A)
heavy: B1 heavy
chain: QVQLVQSGGGLVQAGGSLRLSCAASGRTFSSYAMAWFRQAPGKEREFVAAISWSGANIYVADSVKGRFTISRDNAKDTVYLQMNSLKPEDTAVYYCAVKLGFAPVEERQYDYWGQGTQVTVSSESKYGPPCPPCPAPEAAGGPSVFLFPPKPKDTLMISRTPEVTCVVVDVSQEDPEVQFNWYVDGVEVHNAKTKPREEQFNSTYRVVSVLTVLHQDWLNGKEYKCKVSNKGLPSSIEKTISKAKGQPREPQVCTLPPSQEEMTKNQVSLSCAVKGFYPSDIAVEWESNGQPENNYKTTPPVLDSDGSFFLVSRLTVDKSRWQEGNVFSCSVMHEALHNRFTQKSLSLSL
light: B1 light
notes: IgG4
absorbance ratio to PBS blank [5]: 2.31 | absorbance ratio to PBS blank (Insulin): 1.69

B6: CEA-BsAb bispecific control antibody (TA1-Fab anti-CD3 x CEA VHH) (bispecific antibody, human IgG4 S228P, kappa, F234A L235A)
heavy: B1 heavy
chain: EVQLVESGGGFVQAGESLTLSCTSSTLTFTPYRMAWYRQAPGKQRDLVADISSGDGRTTNYADFAKGRFTISRDNIKNTVFLRMTNLKPEDTAVYYCNTFVSFVGIARSWGQGTQVTVSSESKYGPPCPPCPAPEAAGGPSVFLFPPKPKDTLMISRTPEVTCVVVDVSQEDPEVQFNWYVDGVEVHNAKTKPREEQFNSTYRVVSVLTVLHQDWLNGKEYKCKVSNKGLPSSIEKTISKAKGQPREPQVCTLPPSQEEMTKNQVSLSCAVKGFYPSDIAVEWESNGQPENNYKTTPPVLDSDGSFFLVSRLTVDKSRWQEGNVFSCSVMHEALHNRFTQKSLSLSL
light: B1 light
notes: IgG4
absorbance ratio to PBS blank [5]: 2.16 | absorbance ratio to PBS blank (Insulin): 1.24
